The IC50 is the concentration that inhibits the measured activity by half. Lower therefore signals greater potency in that assay.

Starred links: 1 amine or outer side, 2 acyl side, 3 side chain; linkers in the order of their positions; H or OH if unused. Non-standard residues stand in square brackets, D forms with d. Amp = L-2-amino-3-methoxypropionic acid, COC[C@H](N[*:1])C(=O)[*:2]; Amb = L-2-amino-4-methoxybutyric acid, COCC[C@H](N[*:1])C(=O)[*:2]; NHCH2(1,3-C6H4)CH2CO = O=C(Cc1cccc(CN[*:1])c1)[*:2]; tBuAla = CC(C)(C)C[C@H](N)C(=O)O; Nle = CCCC[C@H](N)C(=O)O; Orn = NCCC[C@H](N)C(=O)O; Dab = NCC[C@H](N)C(=O)O; Nva = CCC[C@H](N)C(=O)O; Abu = CC[C@H](N)C(=O)O; Dap = NC[C@H](N)C(=O)O; Aoc = NCCCCCCCC(=O)O; Ahp = NCCCCCCC(=O)O; βAla = NCCC(=O)O Where only a bound is given, the exact number is not on record here.

14 molecules from patent US20140011734A1 (Sanofi, published 2014) can be followed below.

Assay [1] concerns the target T1, blood platelet receptor glycoprotein Ib-IX-V complex (GPIb) (human, UniProt P07359 17-652; P13224 26-206; P14770 17-177; P40197 17-560).
T1 construct: whole, on cells; also called GPIb complex; GPIb receptor
The assay is described as follows: inhibition of static adhesion of human platelets to coated vWF-A1; grade C = IC50 lower than 1 µM. On the procedure: (§1) Platelet rich plasma was carefully transferred again to fresh containers, PGE1 (0.5 μg/ml, Sigma) was added and the suspension was allowed to rest for 5 min. This was followed by another centrifugation step for 15 min at 360 g. The supernatant was discarded and the cell pellets were carefully resuspended in tyrode buffer (NaCl, 137 mM (Sigma S-3014); KCl, 2.7 mM (Sigma P-9541); NaHCO₃,12 mM (Riedel deHaen 31437); NaH₂PO₄×2H₂O, 0.36 mM (Merck 6345); MgCl₂×6 H₂O, 1 mM (Sigma M-2670); Hepes, 10 mM (Sigma H-1016); glucose, 5.6 mM (Merck 8342); BSA, 0.1% (Sigma A7906)), and PGE1 (0.25 μg/ml) was added. After 5 min of resting the suspension was spun down for 15 min at 300 g. The supernatant was discarded and the pellets were carefully resuspended in TBS buffer (Tris-HCl, 50 mM (Fluka 93371); NaCl, 120 mM (Sigma S-3014); KCl, 2.7 mM (Sigma P-9541); CaCl₂, 0.05 mM (Sigma C-3306); MgCl₂×6 H₂O, 2 mM (Sigma M-2670); BSA, 0.1% (Sigma A7906); pH 7.4). The platelet count was adjusted to 2×10⁵ cells/μl, and the suspensions from individual donors were pooled at this stage. The platelets were allowed to rest for 30 min at room temperature before calcein AM (2.5 μM per 2×10⁵ cells/pi (Molecular Probes C-3099)) was added. This was followed by 15 min incubation in the dark. Cells were diluted to 5×10⁴ cells/μl and ReoPro (3 μg/ml (Centocor B. V., Leiden, N L)) was added, followed by a 10 min incubation period in the dark before adding the platelets to the assay plates.
96 well plates (Greiner hb, black, clear bottom, F, 655097) were coated with human recombinant vWF-A1 domain (1.5 μg/well, AA 475-706, expressed in E. coli) in Tris buffer (pH 7.4; Tris-HCl, 25 mM; NaCl, 150 mM) and incubated for 1 h at room temperature. After washing the wells 3× with TBS, blocking buffer (TBS with 5% BSA) was added followed by an incubation for 1 h. The wells were washed again 3× with TBS before 200 μl TBS were added to each well, preventing them from drying out. TBS was flicked out and serial dilutions of the test compound were added. The washed and calcein AM labeled thrombocytes were added to the wells (2.5×10⁶ cells/well). Following an adhesion period of 1.5 h in the dark the wells were washed 3× with TBS. Measurement of fluorescence per well was performed in a SpectraMax M5 reader (Molecular Devices). From the raw data % inhibition and IC₅₀ values were calculated.

In assay [2] the target is T1, blood platelet receptor glycoprotein …. Put plainly: inhibition of static adhesion of human platelets to coated vWF-A1; grade A = showed activity at 10 µM. On the procedure: as §1, with “The platelet count was adjusted to 2×10⁵ cells/μl, and the suspensions from individual donors were pooled at this stage. The platelets were allowed to rest for 30 min at room temperature before calcein AM (2.5 μM per 2×10⁵ cells/pi (Molecular Probes C-3099)) was added. This was followed by 15 min incubation in the dark. Cells were diluted to 5×10⁴ cells/μl and ReoPro (3 μg/ml (Centocor B. V., Leiden, N L)) was added, followed by a 10 min incubation period in the dark before adding the platelets to the assay plates.” left out
96 well plates (Greiner hb, black, clear bottom, F, 655097) were coated with human recombinant vWF-A1 domain (1.5 μg/well, AA 475-706, expressed in E. coli) in Tris buffer (pH 7.4; Tris-HCl, 25 mM; NaCl, 150 mM) and incubated for 1 h at room temperature. […] Measurement of fluorescence per well was performed in a SpectraMax M5 reader (Molecular Devices). From the raw data % inhibition and IC₅₀ values were calculated.

Assay [3] has the same target. Put plainly: cell-based or functional assay.

T1 sequence (P07359 17-652, chain 1 of 4): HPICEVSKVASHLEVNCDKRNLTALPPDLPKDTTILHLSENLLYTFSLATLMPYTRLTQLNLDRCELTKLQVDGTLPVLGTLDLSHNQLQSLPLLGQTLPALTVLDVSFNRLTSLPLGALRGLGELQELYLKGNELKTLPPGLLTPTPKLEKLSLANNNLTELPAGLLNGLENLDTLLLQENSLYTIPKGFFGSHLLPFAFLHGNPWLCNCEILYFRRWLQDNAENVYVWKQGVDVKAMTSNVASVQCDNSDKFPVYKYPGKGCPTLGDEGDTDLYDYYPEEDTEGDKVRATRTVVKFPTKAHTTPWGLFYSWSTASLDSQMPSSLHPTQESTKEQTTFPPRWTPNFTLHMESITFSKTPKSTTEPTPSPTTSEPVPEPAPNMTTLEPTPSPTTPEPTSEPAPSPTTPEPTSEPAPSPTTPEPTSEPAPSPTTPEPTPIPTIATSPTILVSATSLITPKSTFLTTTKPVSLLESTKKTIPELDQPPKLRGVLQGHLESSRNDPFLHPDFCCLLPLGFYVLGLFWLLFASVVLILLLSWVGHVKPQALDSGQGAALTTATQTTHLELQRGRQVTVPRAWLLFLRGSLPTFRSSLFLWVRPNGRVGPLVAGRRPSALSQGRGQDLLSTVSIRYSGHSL
T1 sequence (P13224 26-206, chain 2 of 4): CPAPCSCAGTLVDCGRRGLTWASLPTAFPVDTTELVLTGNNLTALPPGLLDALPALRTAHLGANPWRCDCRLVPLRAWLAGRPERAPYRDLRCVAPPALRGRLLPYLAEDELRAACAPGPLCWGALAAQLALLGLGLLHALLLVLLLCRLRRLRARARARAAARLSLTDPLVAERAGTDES
T1 sequence (P14770 17-177, chain 3 of 4): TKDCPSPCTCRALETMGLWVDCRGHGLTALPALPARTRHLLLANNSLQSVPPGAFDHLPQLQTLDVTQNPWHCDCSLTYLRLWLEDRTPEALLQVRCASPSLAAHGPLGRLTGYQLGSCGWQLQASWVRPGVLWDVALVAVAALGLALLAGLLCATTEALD
T1 sequence (P40197 17-560, chain 4 of 4): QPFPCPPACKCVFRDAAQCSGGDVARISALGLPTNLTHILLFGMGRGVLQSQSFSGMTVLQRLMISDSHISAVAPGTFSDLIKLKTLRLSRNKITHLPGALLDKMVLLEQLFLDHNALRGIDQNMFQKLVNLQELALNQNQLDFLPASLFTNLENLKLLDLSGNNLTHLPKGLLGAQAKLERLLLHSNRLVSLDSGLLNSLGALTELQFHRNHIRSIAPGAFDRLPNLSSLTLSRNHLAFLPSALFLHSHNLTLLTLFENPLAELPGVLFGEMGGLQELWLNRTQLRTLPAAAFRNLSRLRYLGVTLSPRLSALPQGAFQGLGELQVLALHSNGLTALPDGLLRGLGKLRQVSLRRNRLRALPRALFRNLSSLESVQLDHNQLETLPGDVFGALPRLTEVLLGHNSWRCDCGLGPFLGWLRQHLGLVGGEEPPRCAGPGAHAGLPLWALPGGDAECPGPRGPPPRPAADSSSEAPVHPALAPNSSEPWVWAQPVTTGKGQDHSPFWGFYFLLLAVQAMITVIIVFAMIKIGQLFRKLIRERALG

B1: Cyclo[Nva-His-Asn-Leu-NH-(CH2)6-CO-Thr-Glu-Arg-Met-Ala] (peptide)
peptide: cyclo([Nva]HNL[Ahp]TERMA)
SMILES: CCC[C@@H]1NC(=O)[C@H](C)NC(=O)[C@H](CCSC)NC(=O)[C@H](CCCNC(=N)N)NC(=O)[C@H](CCC(=O)O)NC(=O)[C@H]([C@@H](C)O)NC(=O)CCCCCCNC(=O)[C@H](CC(C)C)NC(=O)[C@H](CC(N)=O)NC(=O)[C@H](Cc2c[nH]cn2)NC1=O
The molecule B1 returned an IC50 in assay [1] below 1000 nM.

B2: Cyclo[Leu-His-Asn-Leu-NH-(CH2)6-CO-Thr-Glu-Arg-Nle-Ala] (peptide)
peptide: cyclo(LHNL[Ahp]TER[Nle]A)
SMILES: CCCC[C@@H]1NC(=O)[C@H](CCCNC(=N)N)NC(=O)[C@H](CCC(=O)O)NC(=O)[C@H]([C@@H](C)O)NC(=O)CCCCCCNC(=O)[C@H](CC(C)C)NC(=O)[C@H](CC(N)=O)NC(=O)[C@H](Cc2c[nH]cn2)NC(=O)[C@H](CC(C)C)NC(=O)[C@H](C)NC1=O
B2 yielded an IC50 in assay [1] below 1000 nM.

B3: Cyclo[Leu-His-Asn-Leu-NH-(CH2)7-CO-Thr-Glu-Arg-Met-Ala] (peptide)
peptide: cyclo(LHNL[Aoc]TERMA)
SMILES: CSCC[C@@H]1NC(=O)[C@H](CCCNC(=N)N)NC(=O)[C@H](CCC(=O)O)NC(=O)[C@H]([C@@H](C)O)NC(=O)CCCCCCCNC(=O)[C@H](CC(C)C)NC(=O)[C@H](CC(N)=O)NC(=O)[C@H](Cc2c[nH]cn2)NC(=O)[C@H](CC(C)C)NC(=O)[C@H](C)NC1=O
For the molecule B3, in assay [1], the IC50 is below 1000 nM.

cyclo([tBuAla]HNL[Ahp]TERMA) [Cyclo[Npg-His-Asn-Leu-NH-(CH2)6-CO-Thr-Glu-Arg-Met-Ala]] had an IC50 in assay [1] below 1000 nM.

B4: Cyclo[Leu-His-Asn-Leu-NH-(CH2)6-CO-Thr-Glu-Arg-Amp-Ala] (peptide)
peptide: cyclo(LHNL[Ahp]TER[Amp]A)
SMILES: COC[C@@H]1NC(=O)[C@H](CCCNC(=N)N)NC(=O)[C@H](CCC(=O)O)NC(=O)[C@H]([C@@H](C)O)NC(=O)CCCCCCNC(=O)[C@H](CC(C)C)NC(=O)[C@H](CC(N)=O)NC(=O)[C@H](Cc2c[nH]cn2)NC(=O)[C@H](CC(C)C)NC(=O)[C@H](C)NC1=O
On to B4, for which the IC50 in assay [1] is below 1000 nM.

B5: Cyclo[Leu-His-Asn-Leu-NH-(CH2)6-CO-Thr-Glu-Arg-Abu-Ala] (peptide)
peptide: cyclo(LHNL[Ahp]TER[Abu]A)
SMILES: CC[C@@H]1NC(=O)[C@H](CCCNC(=N)N)NC(=O)[C@H](CCC(=O)O)NC(=O)[C@H]([C@@H](C)O)NC(=O)CCCCCCNC(=O)[C@H](CC(C)C)NC(=O)[C@H](CC(N)=O)NC(=O)[C@H](Cc2c[nH]cn2)NC(=O)[C@H](CC(C)C)NC(=O)[C@H](C)NC1=O
With B5, the IC50 in assay [1] was below 1000 nM.

B6: Cyclo[Leu-His-Asn-Leu-NH-(CH2)2-CO-Gly-Thr-Glu-Arg-Met-Ala] (peptide)
peptide: cyclo(LHNL[βAla]GTERMA)
SMILES: CSCC[C@@H]1NC(=O)[C@H](CCCNC(=N)N)NC(=O)[C@H](CCC(=O)O)NC(=O)[C@H]([C@@H](C)O)NC(=O)CNC(=O)CCNC(=O)[C@H](CC(C)C)NC(=O)[C@H](CC(N)=O)NC(=O)[C@H](Cc2c[nH]cn2)NC(=O)[C@H](CC(C)C)NC(=O)[C@H](C)NC1=O
Turning to B6, the binding result in assay [2] was “binds”.

B7: Cyclo[Leu-His-Asn-Leu-NH-(CH2)6-CO-Thr-Glu-Orn-Met-Ala] (peptide)
peptide: cyclo(LHNL[Ahp]TE[Orn]MA)
SMILES: CSCC[C@@H]1NC(=O)[C@H](CCCN)NC(=O)[C@H](CCC(=O)O)NC(=O)[C@H]([C@@H](C)O)NC(=O)CCCCCCNC(=O)[C@H](CC(C)C)NC(=O)[C@H](CC(N)=O)NC(=O)[C@H](Cc2c[nH]cn2)NC(=O)[C@H](CC(C)C)NC(=O)[C@H](C)NC1=O
As for B7, in assay [1], the IC50 was below 1000 nM.

B8: Cyclo[Leu-His-Asn-Leu-NH-(CH2)6-CO-Thr-Glu-Arg-Met-Ala] (peptide)
peptide: cyclo(LHNL[Ahp]TERMA)
modifications: also: made as TFA salt and as acetate salt
notes: Made as trifluoroacetic acid salt and also as acetic acid salt
Turning to B8, the “IC50 (average value), ristocetin-induced agglutination of human whole blood, impedance aggregometry” value in assay [3] was below 1000 nM. The molecule further came in with an IC50 in assay [1] below 1000 nM.

B9: Cyclo[Leu-His-Asn-Leu-NH-(CH2)6-CO-Val-Glu-Arg-Met-Ala] (peptide)
peptide: cyclo(LHNL[Ahp]VERMA)
SMILES: CSCC[C@@H]1NC(=O)[C@H](CCCNC(=N)N)NC(=O)[C@H](CCC(=O)O)NC(=O)[C@H](C(C)C)NC(=O)CCCCCCNC(=O)[C@H](CC(C)C)NC(=O)[C@H](CC(N)=O)NC(=O)[C@H](Cc2c[nH]cn2)NC(=O)[C@H](CC(C)C)NC(=O)[C@H](C)NC1=O
Take B9: in assay [2], the binding result is “binds”.

B10: Cyclo[Leu-His-Asn-Leu-NH-(CH2)6-CO-Thr-Glu-Arg-Amb-Ala] (peptide)
peptide: cyclo(LHNL[Ahp]TER[Amb]A)
SMILES: COCC[C@@H]1NC(=O)[C@H](CCCNC(=N)N)NC(=O)[C@H](CCC(=O)O)NC(=O)[C@H]([C@@H](C)O)NC(=O)CCCCCCNC(=O)[C@H](CC(C)C)NC(=O)[C@H](CC(N)=O)NC(=O)[C@H](Cc2c[nH]cn2)NC(=O)[C@H](CC(C)C)NC(=O)[C@H](C)NC1=O
B10 showed an IC50 in assay [1] below 1000 nM.

B11: Cyclo[Leu-His-Asn-Leu-NH-X4-X3-X2-X1-CO-Thr-Glu-Arg-Met-Ala] of example 2 (peptide)
peptide: cyclo(LHNL[NHCH2(1,3-C6H4)CH2CO]TERMA)
SMILES: CSCC[C@@H]1NC(=O)[C@H](CCCNC(=N)N)NC(=O)[C@H](CCC(=O)O)NC(=O)[C@H]([C@@H](C)O)NC(=O)Cc2cccc(c2)CNC(=O)[C@H](CC(C)C)NC(=O)[C@H](CC(N)=O)NC(=O)[C@H](Cc2c[nH]cn2)NC(=O)[C@H](CC(C)C)NC(=O)[C@H](C)NC1=O
Regarding B11, the “IC50 (average value), ristocetin-induced agglutination of human whole blood, impedance aggregometry” value in assay [3] is below 1000 nM. This molecule also displayed an IC50 in assay [1] below 1000 nM.

B12: Cyclo[Leu-His-Asn-Leu-NH-(CH2)6-CO-Thr-Glu-Arg-Met-Dpr] (peptide)
peptide: cyclo(LHNL[Ahp]TERM[Dap])
SMILES: CSCC[C@@H]1NC(=O)[C@H](CCCNC(=N)N)NC(=O)[C@H](CCC(=O)O)NC(=O)[C@H]([C@@H](C)O)NC(=O)CCCCCCNC(=O)[C@H](CC(C)C)NC(=O)[C@H](CC(N)=O)NC(=O)[C@H](Cc2c[nH]cn2)NC(=O)[C@H](CC(C)C)NC(=O)[C@H](CN)NC1=O
Molecule B12 registered an IC50 in assay [1] below 1000 nM.

B13: Cyclo[Leu-His-Asn-Leu-NH-(CH2)6-CO-Dbu-Glu-Arg-Met-Ala] (peptide)
peptide: cyclo(LHNL[Ahp][Dab]ERMA)
SMILES: CSCC[C@@H]1NC(=O)[C@H](CCCNC(=N)N)NC(=O)[C@H](CCC(=O)O)NC(=O)[C@H](CCN)NC(=O)CCCCCCNC(=O)[C@H](CC(C)C)NC(=O)[C@H](CC(N)=O)NC(=O)[C@H](Cc2c[nH]cn2)NC(=O)[C@H](CC(C)C)NC(=O)[C@H](C)NC1=O
For the molecule B13, the IC50 in assay [1] was below 1000 nM.
